The values below come from PMC9526450 (Nature structural & molecular biology, 2022).

This experiment deals with T1, Strep-tagged WT UBE2O from Expi293F cells (human, UniProt Q9C0C9 1-1292).
T1 sequence (looked up): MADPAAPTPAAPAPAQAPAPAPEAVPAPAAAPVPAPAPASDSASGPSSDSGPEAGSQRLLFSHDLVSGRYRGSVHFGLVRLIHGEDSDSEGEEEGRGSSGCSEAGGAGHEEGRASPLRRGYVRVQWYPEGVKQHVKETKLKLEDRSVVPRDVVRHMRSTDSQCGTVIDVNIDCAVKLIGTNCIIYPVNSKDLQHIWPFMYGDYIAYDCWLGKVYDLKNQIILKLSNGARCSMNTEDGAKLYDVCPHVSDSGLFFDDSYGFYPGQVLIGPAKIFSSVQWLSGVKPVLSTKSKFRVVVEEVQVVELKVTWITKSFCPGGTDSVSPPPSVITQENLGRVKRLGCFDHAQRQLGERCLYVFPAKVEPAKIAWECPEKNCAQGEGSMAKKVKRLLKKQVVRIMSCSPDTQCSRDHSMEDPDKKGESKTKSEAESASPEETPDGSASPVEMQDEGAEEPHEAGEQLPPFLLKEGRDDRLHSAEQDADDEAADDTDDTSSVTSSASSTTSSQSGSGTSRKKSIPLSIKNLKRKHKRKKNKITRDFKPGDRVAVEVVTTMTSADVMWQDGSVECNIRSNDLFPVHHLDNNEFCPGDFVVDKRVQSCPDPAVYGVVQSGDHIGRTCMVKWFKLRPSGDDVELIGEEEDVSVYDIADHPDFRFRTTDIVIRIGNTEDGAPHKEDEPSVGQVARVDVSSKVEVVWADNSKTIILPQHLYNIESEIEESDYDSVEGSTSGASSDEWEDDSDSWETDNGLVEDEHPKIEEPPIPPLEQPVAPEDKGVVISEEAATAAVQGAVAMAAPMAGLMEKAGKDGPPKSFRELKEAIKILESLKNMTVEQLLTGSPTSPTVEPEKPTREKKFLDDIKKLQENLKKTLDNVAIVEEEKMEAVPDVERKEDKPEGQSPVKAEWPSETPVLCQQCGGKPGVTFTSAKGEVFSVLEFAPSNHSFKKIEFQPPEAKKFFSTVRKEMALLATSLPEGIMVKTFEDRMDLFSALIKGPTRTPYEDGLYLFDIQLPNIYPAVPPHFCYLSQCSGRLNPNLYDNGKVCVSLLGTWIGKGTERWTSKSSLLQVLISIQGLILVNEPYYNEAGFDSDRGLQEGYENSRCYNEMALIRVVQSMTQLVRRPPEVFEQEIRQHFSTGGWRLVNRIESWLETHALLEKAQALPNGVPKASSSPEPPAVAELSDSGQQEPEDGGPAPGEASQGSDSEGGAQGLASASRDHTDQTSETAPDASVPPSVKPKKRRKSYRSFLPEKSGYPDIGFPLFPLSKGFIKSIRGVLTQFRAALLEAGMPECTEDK
Put plainly: SEC.

B1: purified Strep-tagged NAP1L1 (natural protein, human, UniProt P55209 1-391, looked up)
chain: MADIDNKEQSELDQDLDDVEEVEEEETGEETKLKARQLTVQMMQNPQILAALQERLDGLVETPTGYIESLPRVVKRRVNALKNLQVKCAQIEAKFYEEVHDLERKYAVLYQPLFDKRFEIINAIYEPTEEECEWKPDEEDEISEELKEKAKIEDEKKDEEKEDPKGIPEFWLTVFKNVDLLSDMVQEHDEPILKHLKDIKVKFSDAGQPMSFVLEFHFEPNEYFTNEVLTKTYRMRSEPDDSDPFSFDGPEIMGCTGCQIDWKKGKNVTLKTIKKKQKHKGRGTVRTVTKTVSNDSFFNFFAPPEVPESGDLDDDAEAILAADFEIGHFLRERIIPRSVLYFTGEAIEDDDDDYDEEGEEADEEGEEEGDEENDPDYDPKKDQNPAECKQQ
With B1, the binding result was “binds”.
